Results as given in the Immune Epitope Database (IEDB).

Tests used:
Experiment in all cases: IEDB peptide-MHC binding, purified MHC/competitive/radioactivity; filed as Kd, often an IC50 or EC50 that approximates it; ≥ and ≤ were set here for values at or beyond the usual limits of such assays
HLA-A*02:02 = molecular target: HLA-A*02:02
HLA-A*02:03 = molecular target: HLA-A*02:03
HLA-A*02:06 = molecular target: HLA-A*02:06
HLA-A*31:01 = molecular target: HLA-A*31:01
HLA-A*68:01 = molecular target: HLA-A*68:01
HLA-A*11:01 = molecular target: HLA-A*11:01
HLA-A*03:01 = molecular target: HLA-A*03:01
HLA-A*33:01 = molecular target: HLA-A*33:01
[1] = source organism: Vaccinia virus WR
[2] = source organism: Dengue virus 1 Brazil/97-11/1997
[3] = source organism: Mammarenavirus juninense
[4] = source organism: SARS coronavirus Tor2
[5] = source organism: Lymphocytic choriomeningitis virus (strain Armstrong)
[6] = source organism: Dengue virus 3 Martinique/1243/1999
[7] = source organism: Vaccinia virus Copenhagen

IVAAVIIMA
Kd (HLA-A*02:02; [1]): 10400 nM
Kd (HLA-A*02:03; [1]): 2660 nM
Kd (HLA-A*02:06; [1]): 3570 nM

KMFEATARGA
Kd (HLA-A*02:03; [2]): 51.1 nM

IILFQNNDI
Kd (HLA-A*02:02; [1]): 11300 nM
Kd (HLA-A*02:03; [1]): ≥ 52300 nM
Kd (HLA-A*02:06; [1]): 12000 nM

SMSQELAELL
Kd (HLA-A*02:02; [1]): 6.19 nM
Kd (HLA-A*02:03; [1]): 54.5 nM
Kd (HLA-A*02:06; [1]): 474 nM

ELKHGLLDSI
Kd (HLA-A*02:02; [1]): 540 nM
Kd (HLA-A*02:03; [1]): 54.8 nM
Kd (HLA-A*02:06; [1]): 1340 nM

YCNYTKFWYV
Kd (HLA-A*02:02; [3]): 322 nM
Kd (HLA-A*02:03; [3]): 101 nM
Kd (HLA-A*02:06; [3]): 6.54 nM

YLLGLSAIM
Kd (HLA-A*02:02; [4]): 1.69 nM
Kd (HLA-A*02:03; [4]): 37.1 nM
Kd (HLA-A*02:06; [4]): 3.22 nM

GVEVRYIDI
Kd (HLA-A*02:02; [1]): 12000 nM
Kd (HLA-A*02:03; [1]): ≥ 45300 nM
Kd (HLA-A*02:06; [1]): 10200 nM

FVSTMPVET
Kd (HLA-A*02:02; [1]): 1220 nM
Kd (HLA-A*02:03; [1]): 391 nM
Kd (HLA-A*02:06; [1]): 1540 nM

PLTGNNTITT
Kd (HLA-A*02:02; [1]): 7670 nM
Kd (HLA-A*02:03; [1]): ≥ 29500 nM
Kd (HLA-A*02:06; [1]): ≥ 69800 nM

GIFVDTMSI
Kd (HLA-A*02:02; [1]): 2880 nM
Kd (HLA-A*02:03; [1]): 936 nM
Kd (HLA-A*02:06; [1]): 1620 nM

NMKPNFWSRI
Kd (HLA-A*02:02; [1]): 1680 nM
Kd (HLA-A*02:03; [1]): 193 nM
Kd (HLA-A*02:06; [1]): 13900 nM

TIGLSLVASV
Kd (HLA-A*02:03; [2]): 12.8 nM

FLFWFLKSGA
Kd (HLA-A*02:02; [1]): 1.07 nM
Kd (HLA-A*02:03; [1]): 0.584 nM
Kd (HLA-A*02:06; [1]): 22.8 nM

VLQQNNSFI
Kd (HLA-A*02:02; [1]): 100 nM
Kd (HLA-A*02:03; [1]): 249 nM
Kd (HLA-A*02:06; [1]): 8680 nM

IIDLLLPST
Kd (HLA-A*02:02; [1]): 15100 nM
Kd (HLA-A*02:03; [1]): 10300 nM
Kd (HLA-A*02:06; [1]): 1120 nM

CLEAKTHFST
Kd (HLA-A*02:02; [1]): 12400 nM
Kd (HLA-A*02:03; [1]): 11100 nM
Kd (HLA-A*02:06; [1]): ≥ 69800 nM

PIPMSRLFM
Kd (HLA-A*02:02; [1]): 3890 nM
Kd (HLA-A*02:03; [1]): 9130 nM
Kd (HLA-A*02:06; [1]): ≥ 31200 nM

SMMVILPDKI
Kd (HLA-A*02:02; [1]): 28.3 nM
Kd (HLA-A*02:03; [1]): 19.2 nM
Kd (HLA-A*02:06; [1]): 5.67 nM

IIGEPIIVA
Kd (HLA-A*02:02; [1]): 2320 nM
Kd (HLA-A*02:03; [1]): 4780 nM
Kd (HLA-A*02:06; [1]): 1350 nM

IVNTTYDFL
Kd (HLA-A*02:02; [1]): 1880 nM
Kd (HLA-A*02:03; [1]): 4680 nM
Kd (HLA-A*02:06; [1]): 2990 nM

DIDLLFNEKL
Kd (HLA-A*02:02; [1]): 11200 nM
Kd (HLA-A*02:03; [1]): ≥ 26700 nM
Kd (HLA-A*02:06; [1]): ≥ 25700 nM

YCNYSKFWYL
Kd (HLA-A*02:02; [5]): 1110 nM
Kd (HLA-A*02:03; [5]): 9630 nM
Kd (HLA-A*02:06; [5]): 1060 nM

RVKQWVMDT
Kd (HLA-A*02:02; [1]): 3630 nM
Kd (HLA-A*02:03; [1]): 3.61 nM
Kd (HLA-A*02:06; [1]): 13500 nM

MVDVSMMSM
Kd (HLA-A*02:02; [1]): 559 nM
Kd (HLA-A*02:03; [1]): 1160 nM
Kd (HLA-A*02:06; [1]): 101 nM

SVDAMIHKT
Kd (HLA-A*02:02; [1]): 5020 nM
Kd (HLA-A*02:03; [1]): 3660 nM
Kd (HLA-A*02:06; [1]): 10600 nM

LNMFVSDQV
Kd (HLA-A*02:02; [5]): 17.6 nM
Kd (HLA-A*02:03; [5]): 879 nM
Kd (HLA-A*02:06; [5]): 4810 nM

IMTIDLDPV
Kd (HLA-A*02:03; [6]): 15.3 nM
Kd (HLA-A*02:06; [6]): 34.8 nM

EIARIENEM
Kd (HLA-A*02:02; [1]): 335 nM
Kd (HLA-A*02:03; [1]): ≥ 47900 nM
Kd (HLA-A*02:06; [1]): ≥ 77100 nM

STVDVRNIVT
Kd (HLA-A*02:02; [1]): 3060 nM
Kd (HLA-A*02:03; [1]): 11600 nM
Kd (HLA-A*02:06; [1]): 1570 nM

KLYIALCKV
Kd (HLA-A*02:02; [7]): 15.6 nM
Kd (HLA-A*02:03; [7]): 1.41 nM
Kd (HLA-A*02:06; [7]): 97 nM

TIDNIVTSL
Kd (HLA-A*02:02; [1]): 178 nM
Kd (HLA-A*02:03; [1]): 1040 nM
Kd (HLA-A*02:06; [1]): 2730 nM

FQSHQLWAT
Kd (HLA-A*02:06; source organism: Dengue virus 1 Singapore/S275/1990): 25.6 nM

FLFLAWIML
Kd (HLA-A*02:02; [4]): 1.81 nM
Kd (HLA-A*02:03; [4]): 37.7 nM
Kd (HLA-A*02:06; [4]): 36.7 nM

RTRCKYVGCT
Kd (HLA-A*02:02; [1]): 149 nM
Kd (HLA-A*02:03; [1]): 12300 nM
Kd (HLA-A*02:06; [1]): 11600 nM

LLNMRDLIVT
Kd (HLA-A*02:02; [1]): 1420 nM
Kd (HLA-A*02:03; [1]): 557 nM
Kd (HLA-A*02:06; [1]): 707 nM

LTDVEKRIL
Kd (HLA-A*02:02; [1]): ≥ 27400 nM
Kd (HLA-A*02:03; [1]): ≥ 28500 nM
Kd (HLA-A*02:06; [1]): ≥ 77100 nM

ILANERYRSA
Kd (HLA-A*02:02; [1]): 104 nM
Kd (HLA-A*02:03; [1]): 18.3 nM
Kd (HLA-A*02:06; [1]): 7800 nM

GLFKTLTGEI
Kd (HLA-A*02:03; source organism: Dengue virus 4 Philippines/H241/1956): 15 nM

VQYENLKYSV
Kd (HLA-A*02:06; [2]): 31.2 nM

YSMCTGKFKV
Kd (HLA-A*02:06; source organism: Dengue virus 2 16681-PDK53): 54.4 nM

LMYALEPRK
Kd (HLA-A*31:01; [1]): 5640 nM
Kd (HLA-A*68:01; [1]): 808 nM
Kd (HLA-A*11:01; [1]): 53.9 nM
Kd (HLA-A*03:01; [1]): 5.59 nM
Kd (HLA-A*33:01; [1]): ≥ 25900 nM

GAAVTLNRIK
Kd (HLA-A*31:01; [1]): ≥ 40600 nM
Kd (HLA-A*68:01; [1]): 8350 nM
Kd (HLA-A*11:01; [1]): 1040 nM
Kd (HLA-A*03:01; [1]): 1750 nM
Kd (HLA-A*33:01; [1]): ≥ 70000 nM

GFPFNKWGK
Kd (HLA-A*31:01; [4]): 721 nM
Kd (HLA-A*68:01; [4]): 17400 nM
Kd (HLA-A*11:01; [4]): 655 nM
Kd (HLA-A*03:01; [4]): ≥ 20800 nM
Kd (HLA-A*33:01; [4]): 17700 nM

QQFANVISK
Kd (HLA-A*31:01; [1]): 1320 nM
Kd (HLA-A*68:01; [1]): 710 nM
Kd (HLA-A*11:01; [1]): 2.38 nM
Kd (HLA-A*03:01; [1]): 55.6 nM
Kd (HLA-A*33:01; [1]): ≥ 28300 nM
